According to the DeepSol protein solubility set:

Experiment: soluble on expression in E. coli; label from the status in PepcDB or PDB records

Row | Sequence | soluble on expression in E. coli
1 | MGSDKIHHHHHHMGLTLRQIEVIRAVMIAGTIAGAARLMNVAQPGVSRTMKHIESALGIKLFVKKAGRYVPTDEARDIFAQLQEVHRKVDDLQSSIGQLERGRGVELALGSVPSIANAMMPQAIAGLMRRYPDIRINFDILRIEEAIDYLLLGKGELVAMSYHLTHPSITFEPLSKGHLVCIAAREHPIAGRSRISAREIAEHPLIGIDPRDPYGAIMAGIFEREKLEYRTPIRARFGTTVCALVKRNLGIAVIDAFTVGGMADQGLAVIPISEDTEFQTYVAYRADAALSSYAERLVTTLRRVMDDSTGRSRGGRDA | not soluble
2 | SKAVIVIPARYGSSRLPGKPLLDIVGKPMIQHVYERALQVAGVAEVWVATDDPRVEQAVQAFGGKAIMTRNDHESGTDRLVEVMHKVEADIYINLQGDEPMIRPRDVETLLQGMRDDPALPVATLCHAISAAEAAEPSTVKVVVNTRQDALYFSRSPIPYPRNAEKARYLKHVGIYAYRRDVLQNYSQLPESMPEQAESLEQLRLMNAGINIRTFEVAATGPGVDTPACLEKVRALMAQELAENA | soluble
3 | GSRSEPAKVVDIRIDTSAERKPISPYIYGSNQELDATVTAKRFGGNRTTGYNWENNFSNAGSDWLHYSDTYLLEDGGVPKGEWSTPASVVTTFHDKALSKNVPYTLITLQAAGYVSADGNGPVSQEETAPSSRWKEVKFEKGAPFSLTPDTEDDYVYMDEFVNYLVNKYGNASTPTGIKGYSIDNEPALWSHTHPRIHPDNVTAKELIEKSVALSKAVKKVDPYAEIFGPALYGFAAYETLQSAPDWGTEGEGYRWFIDYYLDKMKKASDEEGKRLLDVLDVHWYPEARGGGERICFGADPRNIETNKARLQAPRTLWDPTYIEDSWIGQWKKDFLPILPNLLDSIEKYYPGTKLAITEYDYGGGNHITGGIAQADVLGIFGKYGVYLATFWGDASNNYTEAGINLYTNYDGKGGKFGDTSVKCETSDIEVSSAYASIVGEDDSKLHIILLNKNYDQPTTFNFSIDSSKNYTIGNVWAFDRGSSNITQRTPIVNIKDNTFTYTVPALTACHIVLEAAEP | soluble
4 | MKIVMKISEVRGEILLAAADADIVGKKFREKNLHIEVYPSFYGEVRVTDEMFISSMNICTIANLVGEYTIGVAIDAGFIEKDNILYIQKVPYAQYAKIFQ | soluble
5 | MGSDKIHHHHHHMQPMDAEVLRILRKNNKSQDWGKINKKLHPKIVKYVDGKPVYQFFDTLNDNSFEKNGQLISIRTQPVNSFVPYHVHNYVEMMVVLSGRCVIKTQSESITLIQDEIMIIGCKTIHKIKPINDETIVVEIALKRTAFSLRDLTFLTHSRDAQSVSSTVFFLLSNDDSYGAFNVFHTQHDVNVVNKVNNIIREYYRPDNYSNQVIKFKILELFIRLVRLASKGPILQTQKEDHKNNEVDALTLLLYIEKNYKTVTLKSMAKHFKFHPNYLSSILKRKTGYTFIKLVHLQRINVAAEYLSLTDISIESISLAVGYEDPSCFYKIFRNHMGCSPREYRQRQAA | not soluble
6 | MSLKIKCILIEDEISNEKELYFILRRYDDIEIVGMVQNTDEGIDLVKKLRPQAVFLDINVPNFNGIKLAEEIKDVDSTIAVIFVTAYDKYAVAAFEIKALDYILKPFSIARIEKAVERLKEYINVNKSMKEKLFELICEFNNMERKYIINKIPCENKGKIVLVDVNDIYFFYIKSEKTYVKLNDIIYVTSSTLNDMEKKTGFFRAHRSYLVNLNKIFEIYSWFNGTYKLIMSDYRKSEIPVSRGNVRKLKEIINIEGHHHHHH | not soluble
7 | MGSDKIHHHHHHMAKIAYILLCHKDPDAIIMQAERLTAAGDYMSIHFDARARKADFARIRKALADNPNVTFARRRIKCGWGEWSLVQATLNAIEAAVDEFPRATHFYMLSGDCMAIKTAEYAHSFLDAQDKDYIESFDYFESDWIKTGWKEERLIYRHWFNERTQKRRFYAMFQAQKRLGLTREIPSDIQVMIGSQWWCLRRRTIEWILDFTRKRRDVMQFFATTWIPDETFFQTLVRHLIPEDEIDPRTLTFLMFSDYGMPVSFYNDHYDLLLSQDFLFARKISPEAKELKARLGRLYAAHGVQFQISNEGRNLYKFLTGRGRIGRRFSMRFWETESTLGRERELMILVCKKWHVAKRLLDQIRQVTNVPSIEYLFNEEGTPLPDLGGIQATLEKRTRHRRALMRMLFEYFDTDRLVICLDPTNLELMHDFFSDRSVTRMLEIECQFTDEYLIGHSYRVGLAGERTPKATLERLLPTIRNEMTYEADRIRDAGFARYGRIHQTSTPEENADKVAEFLSIPWDQALRITQTDHLFAD | not soluble
8 | SSVASALLLQEAQAGFCRVDGTIDNNHTGFTGSGFANTNNAQGAAVVWAIDATSSGRRTLTIRYANGGTANRNGSLVINGGSNGNYTVSLPTTGAWTTWQTATIDVDLVQGNNIVQLSATTAEGLPNIDSLSVVGGTVRAGNCG | soluble
9 | MSLELFRSKTCALCKGRKLMCGRPRCPILEKFRVAKSVESKINKKEIFGASPPSVFVGEFGYPNVRIGPMVPPVEGDTSFMDDPSRWENVTILEIMEYRSMLVMGETNAHVQVKKNLNFLTHIQELAMANKPVDSEILLKKTPKLDLITGGFTPPVGPRETMLKFKLAENPKIPKKTDYIVNDELKANEGMISLYDSGFDEYYIIKLLSTGLLGVNKKLVPTKWSITAAQDLLGKYVKKSILEYSQINEYEVYFKNFLGNRYAVLLIPDIYAYEMLEVWLKGSLFSGESYNVLSDFEDTTGMKGYADEITGAFYACRLSILEYLKKRKKQAKILVFREITPEYYAPVGVWQIRTGVKLAMENRVGRFNNLKSALESIKKHLEVPIDDYKTKSKILKSNDRQITLDKFFEGHHHHHH | not soluble
10 | GAMAEYEIDEITFHKRLGILLTSWKNEEDGKTLFQDCDSILVTVGAHDDTNPYQKSTALHTWLLGYEFPSTLILLEKHRITILTSVNKANMLTKLAETKGAAADVNILKRTKDAEENKKLFEKIIEYIRATNKKVGVFPKDKTQGKFINEWDSIFEPVKSEFNLVDASLGLAKCLAIKDEQELANIKGASRVSVAVMSKYFVDELSTYIDQGKKITHSKFSDQMESLIDNEAFFQTKSLKLGDIDLDQLEWCYTPIIQSGGSYDLKPSAITDDRNLHGDVVLCSLGFRYKSYCSNVGRTYLFDPDSEQQKNYSFLVALQKKLFEYCRDGAVIGDIYTKILGLIRAKRPDLEPNFVRNLGAGIGIEFRESSLLVNAKNPRVLQAGMTLNLSIGFGNLINPHPKNSQSKEYALLLIDTIQITRSDPIVFTDSPKAQGDISYFFGED | soluble
11 | TNRLSAYTSHRISKYNDRQTNTSLDINIGKFSSNTNYFFYHTDGWQNSPFEIKKKKGSGEPVLEETYKKTFRAQENQGVSQSLSYYATNNLSFSGNVQYNKRQIFTPTFSEKKAYDMDYRALTASLGTNYLFPNGLHTLSFDAVYDRFRFGYLYHDKDSSESLINNQGQTEQPTFFPGQLRNKNDQIRYTAEARGVFTLPYAQKLTGGLEYFREELISPYNLITDKADASTLSAYVQDEWKPLDWFNMTAGFRLVHHQEFGTRMTPKVSILAKYGPLNFRATYANGYKTPTLKELFARNELTTMGSHNLYLGNADLKPQMSDYYALGLEYNQGPISFSATVYDNELRNLISFMDIPTSPEHEAQGIKKTKQYANIGKARSRGLDVLCDASIGWGIKLGAGYSLVEAKNLQTDEWLEGAARHRANVHADWVHYWGQYRLGVSLFGRIQSERYYKDGNAPDYTLWRLATSHRFAHFRHIILDGTLGIDNLFDYVDDRPMGVNYATVTPGRTFFAQIAIRFNN | not soluble
12 | MGGGPALNRDSSRHARPFISSPVKTLAIIPAFNEAQAIGPVLGDLPDGWVDEVVVVNNASTDATKANARAAGATVVDEPQQGYGAACLRGIAYAETRQPDVVVFLDGDYSDHPEELPRLVEPIAADEADFVVGSRIRGDAEPGALLPQAQVGNRFACSLMARLWGADYTDLGPFRAIRFRDLLALDMQDETFGWTIEMQIRALEAGLRVEEVPVSYRRGIGPSKITGTLSGTVKASAKILWTIGRMAATTHRRAPRLRERVDRARTDAPTPNPGGLEHHHHHH | not soluble
13 | MAHHHHHHMVLITSNCARVAAFTRKAACSGALCDRHRCISGGGRGDLFTRHAGAFKPPAFGVLRGLTHSSQTTHPQTGQLQARKRIQHAMHDRTLSGSGHHRTAVATWSYLLHSLRQNVEQAVPDALYEKLLTDEVPLTPAESRQLADAHRLLRFELQKRIGLLEDSLADAALPYLLQWPALFQRAWLRLPMDQGRASVTEANHDAVVPAPPSFVHAPAALPVTEWAPTLSPASPPACSNGLIGRGALVPRLAQLTRHVIRCVEEDLGRLEHVSEPREDGVPRSRRQVALEAAWRAQWASLLTWHAGVSYGMG | soluble
14 | MKNEELDFDITVFDEGKADLKAAAIYNVPFFPKGAKADEIYTHIKAQIASMLEVKYIDSKVVSISGEKGDFTVNDEQGLGIKADYIIVATGANKSDIKELEDFVIPHELMPKPNKFCFKHHGRQIIKEGIYAAGLASGVTTMVACAMGSANEAACAILSDIKGAVSVYHDTPLEHHHHHH | not soluble
15 | GAMDPMKAKRVQAKIEMEFPSEDVAKVVYEAVLYEHLSVPYRRSEIDFKLEGKKIILDIKATDSSALRGTVNSYLRWIKAAIDVIEV | soluble
16 | MAHHHHHHMMCLKLNLLDHVFANPFMNAAGVLCSTEEDLRCMTASSSGALVSKSCTSAPRDGNPEPRYMAFPLGSINSMGLPNLGFDFYLKYASDLHDYSKKPLFLSISGLSVEENVAMVRRLAPVAQEKGVLLELNLSCPNVPGKPQVAYDFEAMRTYLQQVSLAYGLPFGVKMPPYFDIAHFDTAAAVLNEFPLVKFVTCVNSVGNGLVIDAESESVVIKPKQGFGGLGGKYILPTALANVNAFYRRCPDKLVFGCGGVYSGEDAFLHILAGASMVQVGTALQEEGPGIFTRLEDELLEIMARKGYRTLEEFRGRVKTIE | not soluble
17 | MTNNNQIGENKEQTIFDHKGNVIKTEDREIQIISKFEEPLIVVLGNVLSDEECDELIELSKSKLARSKVGSSRDVNDIRTSSGAFLDDNELTAKIEKRISSIMNVPASHGEGLHILNYEVDQQYKAHYDYFAEHSRSAANNRISTLVMYLNDVEEGGETFFPKLNLSVHPRKGMAVYFEYFYQDQSLNELTLHGGAPVTKGEKWIATQWVRRGTYK | soluble
18 | MDKRISIAIDGPAAAGKSTVAKVVAKKLSYVYIDTGAMYRTITYAALEQKVDIENEEQLMEVVKNVKIEFQQGENTQLVFLNGQDVSEVIRTPEVTNRVSIVAKHRLVREEMVRRQQELAEKGGVVMDGRDIGTHVLPDAEVKIFMLASVEERAERRHLENMNKGFDSNLEQLKEEIAQRDKLDSEREVSPLKKADDALELDTTSLSIEEVVQKIMGIVLGVFAK | not soluble
19 | MRIVSLCPSNTELLAYLGRLDDVAAVDDSSDWPPEVKQLPKVGPDLHIDMDQVEALKPDLVVASLSVPGMERNVKELKRRGLPHLVLAPNSLDDIANDLLRLGEALGETKKAAELVRRYHDVLDWHRERAASAEPARLYWEWWPRPVFTPGGANWLSELSELAGGRNIFSDIPQASVQTEWDDVLARNPSHILLVWVGVQTKKMSPKAVTARPNAQQAEAVRTGNIHILEESLYCRPSPRLLVGLKKLAPLLHPALFPPADDSDPLLGG | not soluble
20 | MGSDKIHHHHHHMVGALAILMVGYSAAEAGGLRDLLEQGGLSAKVDCVAMADMLPGRLQQQEWDLVLTDDRPDLSAAQVLGLLARLGLDVPVIALVSRQDEQAAAHLIAAGVQDVLLKSDPVQLMATIRGCQRYIGHLRDLREAQLALERSEARFRAIASNLPGLVFQFVLESDGSVFFPYVSEGSRSLLGLSPDYLQKKPNSFARLIVATDVASYDQSLQDSCEHLSAWNWEGRIQAKGDMDVKWISLRATPRRTPRGAVLWDGIMLNITRNKQIELEIARSRAQLEELSAYSQKAKEQERTRIAREIHDDIGGTLTAIKCELVPCLDNSSRTPEFYRNKAEAVESLVDMVIDSTRRIALDLRPGVLDCGIVAAVQWQAREFNQRTGVSCTVACDYEDISLDGDLAVAIFRIFQEALTNIAKHANASEVRVKLAETGSQVYLEVTDNGCGITNPDMEKVNSFGIRSMRERCQQLGGQFHIQGGPLAGTEVLIRIPVNGQSTVGRESRLN | not soluble
